Source: US20120316071A1 (published 2012)

B1: Fab VH3-23_IGHD2-21*01>3_IGHJ6*01 H100E/S108P/Y113G/Y110G & V2-13_IGLJ2*01 (Fab, V domains shown)
VH: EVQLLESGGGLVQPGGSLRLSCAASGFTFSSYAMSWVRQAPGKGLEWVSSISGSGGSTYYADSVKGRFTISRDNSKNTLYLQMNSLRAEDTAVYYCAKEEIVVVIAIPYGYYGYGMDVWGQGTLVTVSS
VL: SSELTQDPAVSVALGQTVRITCQGDSLRSYYASWYQQKPGQAPVLVIYGKNNRPSGIPDRFSGSSSGNTASLTITGAQAEDEADYYCNSRDSSGNHLVVFGGGTKLTVL
notes: Fab made in E. coli: VH joined to CH1 (with His and Flag tags, plasmid A) and VL to lambda CL (plasmid E); also called EPG Y110G
B2: Fab VH3-23_IGHD2-21*01>3_IGHJ6*01 H100E/S108P/Y113G T58A & V2-13_IGLJ2*01 (Fab, V domains shown)
VH: EVQLLESGGGLVQPGGSLRLSCAASGFTFSSYAMSWVRQAPGKGLEWVSSISGSGGSAYYADSVKGRFTISRDNSKNTLYLQMNSLRAEDTAVYYCAKEEIVVVIAIPYYYYGYGMDVWGQGTLVTVSS
VL: SSELTQDPAVSVALGQTVRITCQGDSLRSYYASWYQQKPGQAPVLVIYGKNNRPSGIPDRFSGSSSGNTASLTITGAQAEDEADYYCNSRDSSGNHLVVFGGGTKLTVL
notes: Tested as a Fab made in E. coli; also called EPG T58A
B3: Fab VH3-23_IGHD2-21*01>3_IGHJ6*01 H100E/S108P/Y113G/Y111P & V2-13_IGLJ2*01 (Fab, V domains shown)
VH: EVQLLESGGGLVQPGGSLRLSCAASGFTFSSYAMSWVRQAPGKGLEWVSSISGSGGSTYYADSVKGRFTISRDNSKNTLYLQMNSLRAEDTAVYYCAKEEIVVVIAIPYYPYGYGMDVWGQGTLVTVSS
VL: SSELTQDPAVSVALGQTVRITCQGDSLRSYYASWYQQKPGQAPVLVIYGKNNRPSGIPDRFSGSSSGNTASLTITGAQAEDEADYYCNSRDSSGNHLVVFGGGTKLTVL
notes: Fab made in E. coli: VH joined to CH1 (with His and Flag tags, plasmid A) and VL to lambda CL (plasmid E); also called EPG Y111P
B4: Fab VH3-23_IGHD2-21*01>3_IGHJ6*01 H100E/S108P/Y113G A61T & V2-13_IGLJ2*01 (Fab, V domains shown)
VH: EVQLLESGGGLVQPGGSLRLSCAASGFTFSSYAMSWVRQAPGKGLEWVSSISGSGGSTYYTDSVKGRFTISRDNSKNTLYLQMNSLRAEDTAVYYCAKEEIVVVIAIPYYYYGYGMDVWGQGTLVTVSS
VL: SSELTQDPAVSVALGQTVRITCQGDSLRSYYASWYQQKPGQAPVLVIYGKNNRPSGIPDRFSGSSSGNTASLTITGAQAEDEADYYCNSRDSSGNHLVVFGGGTKLTVL
notes: Tested as a Fab made in E. coli; also called EPG A61T
B5: Fab VH3-23_IGHD2-21*01>3_IGHJ6*01 H100E/S108P/Y113G D62A & V2-13_IGLJ2*01 (Fab, V domains shown)
VH: EVQLLESGGGLVQPGGSLRLSCAASGFTFSSYAMSWVRQAPGKGLEWVSSISGSGGSTYYAASVKGRFTISRDNSKNTLYLQMNSLRAEDTAVYYCAKEEIVVVIAIPYYYYGYGMDVWGQGTLVTVSS
VL: SSELTQDPAVSVALGQTVRITCQGDSLRSYYASWYQQKPGQAPVLVIYGKNNRPSGIPDRFSGSSSGNTASLTITGAQAEDEADYYCNSRDSSGNHLVVFGGGTKLTVL
notes: Tested as a Fab made in E. coli; also called EPG D62A
B6: Fab VH3-23_IGHD2-21*01>3_IGHJ6*01 H100E/S108P/Y113G Y60A & V2-13_IGLJ2*01 (Fab, V domains shown)
VH: EVQLLESGGGLVQPGGSLRLSCAASGFTFSSYAMSWVRQAPGKGLEWVSSISGSGGSTYAADSVKGRFTISRDNSKNTLYLQMNSLRAEDTAVYYCAKEEIVVVIAIPYYYYGYGMDVWGQGTLVTVSS
VL: SSELTQDPAVSVALGQTVRITCQGDSLRSYYASWYQQKPGQAPVLVIYGKNNRPSGIPDRFSGSSSGNTASLTITGAQAEDEADYYCNSRDSSGNHLVVFGGGTKLTVL
notes: Tested as a Fab made in E. coli; also called EPG Y60A
B7: Fab VH3-23_IGHD2-21*01>3_IGHJ6*01 H100E/S108P/Y113G/Y111E & V2-13_IGLJ2*01 (Fab, V domains shown)
VH: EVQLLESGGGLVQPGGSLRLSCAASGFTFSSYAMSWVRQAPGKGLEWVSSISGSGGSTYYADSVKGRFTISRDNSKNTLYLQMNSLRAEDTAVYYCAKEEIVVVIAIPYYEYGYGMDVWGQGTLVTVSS
VL: SSELTQDPAVSVALGQTVRITCQGDSLRSYYASWYQQKPGQAPVLVIYGKNNRPSGIPDRFSGSSSGNTASLTITGAQAEDEADYYCNSRDSSGNHLVVFGGGTKLTVL
notes: Fab made in E. coli: VH joined to CH1 (with His and Flag tags, plasmid A) and VL to lambda CL (plasmid E); also called EPG Y111E

Assays:
[1] = target: T1, rHuman P-Cadherin/Fc Chimera, CF (R&D Systems Cat#861-PC) (human, UniProt P22223 108-654); assay: ECL (MSD) multispot binding assay, antigen spotted on plate, 20 nM Fab;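 further: purified Fab incubated 1 h at 20 °C on antigen-spotted plate, bound Fab revealed with TAG detection antibody, ECL read, antigen signal divided by same-well blank, ratio ≥4 counted as hit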
T1 construct: Bought recombinant protein; Fc part of the bought chimera not given

[2] = target: T2, Recombinant Human DLL4 (R&D Systems Cat#1506-D4/CF) (human, UniProt Q9NR61 27-524); assay: as above
T2 construct: Bought recombinant protein; also called delta-like protein 4; rHuman DLL4

[3] = target: T3, rHuman HGF R/c-MET/Fc Chimera, CF (R&D Systems Cat#358-MT/CF) (human, UniProt P08581 25-932); assay: as above
T3 construct: Bought recombinant protein; also called HGF R/Fc; hepatocyte growth factor receptor; Fc part of the bought chimera not given
T3 sequence (P08581 25-932, change not shown): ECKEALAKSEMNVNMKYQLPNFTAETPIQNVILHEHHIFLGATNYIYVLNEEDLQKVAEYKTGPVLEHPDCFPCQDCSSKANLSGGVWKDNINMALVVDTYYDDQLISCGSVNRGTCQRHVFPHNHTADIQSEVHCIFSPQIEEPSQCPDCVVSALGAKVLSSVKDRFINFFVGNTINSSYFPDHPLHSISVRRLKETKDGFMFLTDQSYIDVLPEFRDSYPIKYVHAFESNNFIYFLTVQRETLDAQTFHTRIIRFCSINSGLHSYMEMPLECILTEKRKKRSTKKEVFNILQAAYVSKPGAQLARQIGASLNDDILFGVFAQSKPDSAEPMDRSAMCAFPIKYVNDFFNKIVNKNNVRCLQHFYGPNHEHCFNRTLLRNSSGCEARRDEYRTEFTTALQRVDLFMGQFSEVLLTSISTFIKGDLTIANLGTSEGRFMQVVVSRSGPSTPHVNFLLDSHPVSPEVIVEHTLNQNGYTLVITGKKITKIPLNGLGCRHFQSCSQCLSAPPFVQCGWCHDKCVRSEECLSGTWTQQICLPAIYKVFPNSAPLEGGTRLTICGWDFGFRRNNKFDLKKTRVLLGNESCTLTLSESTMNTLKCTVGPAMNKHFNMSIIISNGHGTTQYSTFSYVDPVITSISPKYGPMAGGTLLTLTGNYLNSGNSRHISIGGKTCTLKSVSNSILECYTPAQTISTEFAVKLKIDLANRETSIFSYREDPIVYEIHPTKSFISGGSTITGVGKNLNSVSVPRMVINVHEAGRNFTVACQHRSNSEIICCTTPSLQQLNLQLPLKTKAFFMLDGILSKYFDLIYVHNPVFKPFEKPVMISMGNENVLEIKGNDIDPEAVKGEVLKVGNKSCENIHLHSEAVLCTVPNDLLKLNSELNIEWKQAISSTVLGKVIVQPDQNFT

[4] = target: T4, rHuman EGF R/Fc Chimera, CF (R&D Systems Cat#344-ER) (human, UniProt P00533 25-645); assay: as above
T4 construct: Bought recombinant protein; also called epidermal growth factor receptor; Fc part of the bought chimera not given

[5] = target: T5, rHuman ErbB2/Fc Chimera, CF (R&D Systems Cat#1129-ER) (human, UniProt P04626 23-652); assay: as above
T5 construct: Bought recombinant protein; also called human epidermal growth factor 2 receptor; Fc part of the bought chimera not given

[6] = target: T6, rHuman Erythropoietin R/Fc Chimera, CF (R&D Systems Cat#963-ER) (human, UniProt P19235 25-250); assay: as above
T6 construct: Bought recombinant protein; also called EPO R; EPO R/Fc; Fc part of the bought chimera not given
T6 sequence (looked up): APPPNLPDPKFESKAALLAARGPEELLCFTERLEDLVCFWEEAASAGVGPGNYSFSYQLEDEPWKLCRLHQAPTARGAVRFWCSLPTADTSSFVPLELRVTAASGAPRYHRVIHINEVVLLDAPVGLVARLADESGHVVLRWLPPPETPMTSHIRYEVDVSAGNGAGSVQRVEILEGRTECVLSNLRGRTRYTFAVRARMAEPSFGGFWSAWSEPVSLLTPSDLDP

[7] = target: T7, rHuman CD44/Fc Chimera, CF (R&D Systems Cat#3660-CD) (human, UniProt P16070 21-220); assay: as above
T7 construct: Bought recombinant protein; Fc part of the bought chimera not given

[8] = target: T8, rHuman IGF-1 sR, (IGF-1 sR), CF (R&D Systems Cat#391-GR) (human, UniProt P08069 31-932); assay: as above
T8 construct: Bought recombinant soluble receptor; also called insulin-like growth factor-1 soluble receptor

[9] = target: T9, rHuman Notch-1/Fc Chimera, CF (R&D Systems Cat#3647-TK) (human, UniProt P46531 19-526); assay: as above
T9 construct: Bought recombinant protein; Fc part of the bought chimera not given

[10] = target: T10, rHuman P-Cadherin/Fc Chimera, CF (R&D Systems Cat#861-PC) (human, UniProt P22223 108-654); assay: ECL multispot (MSD) assay, antigen spotted on plate, 20 nM Fab;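 further: purified Fab bound to plate-spotted antigen for 1 h at 20 °C, labelled detection antibody added, ratio of antigen ECL signal to same-well blank, ratio ≥4 counted as binder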
T10 construct: Bought recombinant protein; Fc part of the bought chimera not given

[11] = target: T11, rHuman ErbB2/Fc Chimera, CF (R&D Systems Cat#1129-ER) (human, UniProt P04626 23-652); assay: as above
T11 construct: Bought recombinant protein; also called human epidermal growth factor 2 receptor; Fc part of the bought chimera not given

[12] = target: T12, Recombinant Human DLL4 (R&D Systems Cat#1506-D4/CF) (human, UniProt Q9NR61 27-524); assay: as above
T12 construct: Bought recombinant protein; also called delta-like protein 4; rHuman DLL4

[13] = target: T13, rHuman CD44/Fc Chimera, CF (R&D Systems Cat#3660-CD) (human, UniProt P16070 21-220); assay: as above
T13 construct: Bought recombinant protein; Fc part of the bought chimera not given

[14] = target: T14, rHuman Erythropoietin R/Fc Chimera, CF (R&D Systems Cat#963-ER) (human, UniProt P19235 25-250); assay: as above
T14 construct: Bought recombinant protein; also called EPO R; EPO R/Fc; Fc part of the bought chimera not given
T14 sequence (looked up): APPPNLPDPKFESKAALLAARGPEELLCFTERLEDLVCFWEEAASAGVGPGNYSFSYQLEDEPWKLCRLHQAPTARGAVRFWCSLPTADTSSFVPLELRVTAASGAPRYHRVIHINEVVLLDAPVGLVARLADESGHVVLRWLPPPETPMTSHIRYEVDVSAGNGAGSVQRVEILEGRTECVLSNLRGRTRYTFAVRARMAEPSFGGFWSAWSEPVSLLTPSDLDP

[15] = target: T15, rHuman EGF R/Fc Chimera, CF (R&D Systems Cat#344-ER) (human, UniProt P00533 25-645); assay: as above
T15 construct: Bought recombinant protein; also called epidermal growth factor receptor; Fc part of the bought chimera not given

[16] = target: T16, rHuman IGF-1 sR, CF (R&D Systems Cat#391-GR) (human, UniProt P08069 31-932); assay: as above
T16 construct: Bought soluble receptor; also called insulin-like growth factor-1 soluble receptor

[17] = target: T17, rHuman Notch-1/Fc Chimera, CF (R&D Systems Cat#3647-TK) (human, UniProt P46531 19-526); assay: as above
T17 construct: Bought recombinant protein; Fc part of the bought chimera not given

Row | ECL signal/blank ratio [1] | ECL signal/blank ratio [2] | ECL signal/blank ratio [3] | ECL signal/blank ratio [4] | ECL signal/blank ratio [5] | ECL signal/blank ratio [6] | ECL signal/blank ratio [7] | ECL signal/blank ratio [8] | ECL signal/blank ratio [9] | ECL signal/blank ratio (read-out not given) [10] | ECL signal/blank ratio (read-out not given) [11] | ECL signal/blank ratio (read-out not given) [12] | ECL signal/blank ratio (read-out not given) [13] | ECL signal/blank ratio (read-out not given) [14] | ECL signal/blank ratio (read-out not given) [15] | ECL signal/blank ratio (read-out not given) [16] | ECL signal/blank ratio (read-out not given) [17] | Binder
1 | 0.8 | 1.3 | 1 | 1.5 | 1.3 | 2 | 1 | 1.4 | 1.6 |  |  |  |  |  |  |  |  | B1
2 |  |  |  |  |  |  |  |  |  | 36.9 | 15.9 | 2.3 | 1.5 | 158 | 9.6 | 1.2 |  | B2
3 | 1.3 | 1.4 | 1.7 | 1.5 | 1.6 | 1.9 | 1.3 | 1.2 | 1.6 |  |  |  |  |  |  |  |  | B3
4 |  |  |  |  |  |  |  |  |  | 20.9 | 11.2 | 2.6 | 2 |  | 7.1 | 1.6 | 2.9 | B4
5 |  |  |  |  |  |  |  |  |  | 45.8 | 21.7 | 2.4 | 2 | 244 | 11.6 | 1.4 |  | B5
6 |  |  |  |  |  |  |  |  |  | 25.3 | 11.5 | 2.3 | 1.5 |  | 6.2 | 1.2 | 2.6 | B6
7 | 2.3 | 1.5 | 2.2 | 1.4 | 1.5 |  | 1.1 | 1.4 | 1.5 |  |  |  |  |  |  |  |  | B7
